Experimental data published in US10078082B2, “Detection of free and protein-bound non-human gal-alpha(1-3)-gal epitope” (National University of Ireland, Galway, priority 2012, dated 2018).
Where “and” joins values, the source holds several entries; their conditions need not be identical. Identical values can stand only once. Values belong to the molecule of their own block, whether it stands above or below them.

Tests used:
scFv A4 = assay: Competitive ELISA specificity study: inhibition of scFv binding to Gal-α-(1→3)-Gal-BSA by free sugars; design: species or system chicken; conditions: highest concentration 1 mg/mL
Description: (§1) Each scFv was evaluated in a competitive ELISA format using free Gal-α-(1,3)-Gal as standard. Microtitre plate wells were coated and blocked as previously described. Standard solutions were prepared in PBS (pH 7.2), ranging in concentration from 2 μg/ml (5.84 μM) to 20 mg/ml (58.4 mM). For the assay, 50 μl of each standard and buffer blank were added to designated wells in triplicate, followed by 50 μl of a sub-saturating concentration (1 μg/ml) of the appropriate scFv, giving a final standard concentration in the assay of 1 μg/ml (2.92 μM) to 10 mg/ml (29.2 mM). The plate was incubated for 1 hour at 37° C. with shaking After washing, bound scFv was detected as previously described. The ratios of the OD for each standard versus the OD given by the blank (B/Bo) were plotted versus standard concentration and standard curve plotted using SigmaPlot (v11, Systat Software Inc). The detection limits were determined as the concentration corresponding to the mean response for zero standard minus three times the standard deviation (SD). Inhibition of scFv by a panel of free sugars. scFv binding to Gal-α-(1→3)-Gal-BSA was determined against a panel of 21 free form sugars; D-Cellibiose, Melibiose, D-Raffinose, Lactulose, Palatinose, β-Gentibiose, D+ Trehalose, D+ Turanose, L− Fructose, D+ Glucose, Sucrose, Galacto-N-biose, 4β-Galactobiose, gal-α(1-3)-gal-β-(1-4)-gal, gal-α(1-3)-gal-β-(1-4)-glc, gal-α(1-3)-gal-β-(1-4)-gal-all-3)-gal, Laminarbiose, β1-4-D-Xylobiose, N-Acetyl-D-glucoseamine (GlcNAc), Galactose, N-Acetyl-D-lactosamine (LacNAc), (sourced from Sigma Aldrich and Dextra, UK). Inhibitions were performed by serial dilutions of free sugars and a sub-saturating concentration scFv added to each dilution and pre-incubated for 60 minutes at 37° C., prior to performing ELISA against Gal-α-(1→3)-Gal-BSA as used throughout. The percent binding of the scFv was plotted against the […], and the 50% effective dose determined (ED50; dose of free sugar causing 50% displacement of the scFv).

scFv G12 = assay: as above; design: species or system chicken; conditions: highest concentration 1 mg/mL
Description: as §1

scFv A11 = assay: as above; design: species or system chicken; conditions: highest concentration 1 mg/mL
Description: as §1

[1] = NGC microarray specificity analysis (over 50 structures); assay type: binding; conditions: FIG. 8
Excerpt: FIG. 8: Comparison of the specificity of selected scFv fragments A4, A11 and G12 against a panel of related NGCs compared directly to the specificity binding pattern of the lectin GS-1-B4, considered as highly specific for α-Gal residues.
The spectacular specificity of the scFvs has also been determined by analysis on an NGC microarray containing over 50 different structures. […] ScFv-based competitive ELISA. Competitive ELISAs were established with each of the three scFvs examined using as standard the free Gal-α-(1→3)-Gal disaccharide within the concentration range 0.001 to 10000 μg/ml (2.93 nM to 29.3 mM). […] A panel of 21 related sugars were tested in the scFv-based competitive assays (Table 1). […] All three scFvs were more reactive to the disaccharide than Gal-α-(1,3)-Gal-containing trisaccharides, as shown by lower inhibitory activity of the trisaccharides and supporting the results obtained in the direct ELISA.

[2] = scFv-based competitive ELISA, free Gal-α-(1→3)-Gal as standard, immobilized Gal-α-(1→3)-Gal-BSA; assay type: binding; conditions: free Gal-α-(1→3)-Gal disaccharide standard; plates coated with Gal-α-(1→3)-Gal-BSA 10 μg/ml; FIG. 6; listed as G12
Description: as §1, with “FIG. 6: Standard curves for competitive ELISA given by scFv clones G12, A4, and A11. Plates were coated with immobilized Gal-α-(1→3)-Gal-BSA [10 μg/ml] and incubated with 2.5 μg/ml of the scFvs in the presence of an increasing concentrations of free Gal-α-(1→3)-Gal. The error bars indicate the standard error of the mean of triplicate determinations. Each” for “Each”

[3] = Thermal denaturation monitored by far UV CD ellipticity; assay type: physicochemical
Description: (§2) Two types of experiments were performed: firstly, the near UV circular dichroism (CD) spectra of the scFvs in the absence and presence of 4 mM of both disaccharides have been compared. Secondly, the effect of the disaccharides on the thermal stability of the scFvs has been studied.
Samples were diluted in NaPi (10 mM)-NaCl (150 mM) pH 7.2 and either concentrated by ultrafiltration twice (for small amounts) or exhaustively dialyzed. CD spectra were acquired at 20° C. in a J-810 spectropolarimeter, equipped with a Peltier temperature control system, using a bandwidth of 1 nm, a scan rate of 20 nm/min and a response time of 4 s, collecting data every 0.2 nm and 3 accumulations for each spectrum. Near-UV spectra were registered at around 1.0 mg ml^−1 protein concentration in 1-cm path-length cells while far-UV spectra were recorded in 0.1 cm path-length quartz cells at a protein concentration of around 0.2 mg ml^−1. For all CD spectra, the corresponding buffer baseline was subtracted. […] Ellipticity changes were collected every 0.2° C. and spectra were collected every 10° C. The thermal denaturation profiles were fitted to a sigmoidal function using the equation:—
where Θ(T) represents the ellipticity at temperature T (Kelvin), ΘN the ellipticity of the native protein, n the number of transitions, ΔΘ1 the ellipticity increment of transition i, R the gas constant and Tmi and HDi the temperature at the transition midpoint (melting temperature) and the parameter which describes the cooperativity (slope) of the corresponding transition, respectively.
In the second set of experiments, the thermal stability of the scFvs in the absence and presence of the disaccharides was investigated. With this type of experiment, we were able to get: 1) the far UV CD spectra at increasing temperatures, which gave information on changes in the secondary structure of the proteins upon heating and 2) the profile of the change in ellipticity at a certain wavelength, also with increasing temperatures, that allowed the calculation of the temperature of transition (Tm). Direct comparison of the Tm in the absence and presence of sugar provided information about the effect of the sugar on the scFvs, a thermal stabilisation (i.e. an increase in the Tm in the presence of the sugar) being indicative of interaction.

[4] = Near UV circular dichroism interaction study with disaccharides; assay type: binding; conditions: pH 7.2, 20° C.
Description: The scFvs A4, A11 and G12 were used to check their interaction with Galα(1,3)Galβ1-OMe (Carbosynth) and with melibiose, the latter as negative control.
as §2
Samples were diluted in NaPi (10 mM)-NaCl (150 mM) pH 7.2 and either concentrated by ultrafiltration twice (for small amounts) or exhaustively dialyzed. CD spectra were acquired at 20° C. in a J-810 spectropolarimeter, equipped with a Peltier temperature control system, using a bandwidth of 1 nm, a scan rate of 20 nm/min and a response time of 4 s, collecting data every 0.2 nm and 3 accumulations for each spectrum. Near-UV spectra were registered at around 1.0 mg ml^−1 protein concentration in 1-cm path-length cells while far-UV spectra were recorded in 0.1 cm path-length quartz cells at a protein concentration of around 0.2 mg ml^−1. For all CD spectra, the corresponding buffer baseline was subtracted. Thermal stability was evaluated by measuring ellipticity changes at 208 nm while increasing temperature from 20 to 90° C., with a constant rate of 40° C./h. Ellipticity changes were collected every 0.2° C. and spectra were collected every 10° C. The thermal denaturation profiles were fitted to a sigmoidal function using the equation:—

[5] = +4 mM Galα(1,3)Galβ1-OMe, λ 208
[6] = +4 mM Galα(1,3)Galβ1-OMe, λ 218
[7] = in the presence of 4 mM Galα(1,3)Galβ1-OMe, 208 nm

Molecule: gal-α(1,3)-gal-BSA [gal-α(1,3)-gal-BSA (NGC)]
% Maximum inhibition at Max Conc A4 (scFv A4): 36.4%
% Maximum inhibition at Max Conc G12 (scFv G12): 33.93%
% Maximum inhibition at Max Conc A11 (scFv A11): 51.06%

Molecule: OC[C@H]1O[C@H](O[C@H]2[C@@H](O)[C@@H](CO)O[C@@H](O[C@@H]3[C@H](O)[C@@H](O)[C@@H](O[C@H]4[C@@H](O)[C@@H](CO)OC(O)[C@@H]4O)O[C@@H]3CO)[C@@H]2O)[C@H](O)[C@@H](O)[C@H]1O (stereo partly drawn) [gal-α(1,3)-gal-β-(1,4)-gal-α-(1,3)-gal]
% Maximum inhibition at Max Conc A4 (scFv A4): 73.48%
% Maximum inhibition at Max Conc G12 (scFv G12): 73.54%
% Maximum inhibition at Max Conc A11 (scFv A11): 78.41%

B1: scFv G12: chicken anti-Gal-α-(1→3)-Gal single chain antibody fragment, Seq Id No. 3; clone F1 has the same sequence (protein)
scFv: QAALTQPSSVSANPGETVKITCSGGSYHYGWYQQKSPGSAPVTVIYSNNQRPSGIPSRFSGSTSDSTGTLTITGVQADDEAVYFCGSYDSSNTYAGIFGAGTTLTVLGQSSRSSSGGGSSGGGGSAVTLDESGGGFQTPGGALSLVCKASGFTFSSYSMQWVRQAPGKGLEFVAGIGNSDRYTYFGPAVKGRATISRDNGQSTLRLQLNNLRAEDTATYFCARSGDSGNGCTHPWCSADNINAWGHGTEVIVSSTSGQAGQ
modifications: Synthetic protein sequence for scFv-G12 antibody fragment for detecting non-human Gal-alpha(1-3)-Gal
Specificity for the Gal-α-(1→3)-Gal epitope compared with GS-1-B4 [1]: much higher specificity
ED50 [2]: 158 μg/ml and 0.46 mM
HD [3, 5]: 71 ± 5 kcal/mol
Tm [3, 5]: 73.5 ± 0.3 °C
HD [3, 6]: 137 ± 24 kcal/mol
Tm [3, 6]: 74.3 ± 0.4 °C
HD ([3]; +4 mM melibiose, λ 218): 116 ± 16 kcal/mol
Tm ([3]; +4 mM melibiose, λ 218): 66.5 ± 0.3 °C
HD ([3]; Pure scFv, λ 208): 64 ± 4 kcal/mol
Tm ([3]; Pure scFv, λ 208): 64.7 ± 0.2 °C
HD ([3]; Pure scFv, λ 218): 116 ± 21 kcal/mol
Tm ([3]; Pure scFv, λ 218): 66.4 ± 0.4 °C
Change in cooperativity (HD) [3, 7]: +6.8 Kcal/mol
Stabilisation (increase in Tm) [3, 7]: 8.8 °C
Change of near UV CD spectrum ([4]; 4 mM Galα(1,3)Galβ1-OMe): a clear change was detected
Change of near UV CD spectrum ([4]; 4 mM melibiose (negative control)): did not cause any significant changes

Other lines, results leading:

% Maximum inhibition at Max Conc A4 (scFv A4): 66.20%
% Maximum inhibition at Max Conc G12 (scFv G12): 83.03%
% Maximum inhibition at Max Conc A11 (scFv A11): 73.88%
Molecule: OC[C@H]1O[C@H](O[C@H]2[C@@H](O)[C@@H](CO)O[C@@H](O[C@H]3[C@H](O)[C@@H](O)C(O)O[C@@H]3CO)[C@@H]2O)[C@H](O)[C@@H](O)[C@H]1O (stereo partly drawn) [gal-α(1,3)-gal-β-(1,4)-glc]

% Maximum inhibition at Max Conc A4 (scFv A4): 68.18%
% Maximum inhibition at Max Conc G12 (scFv G12): 64.43%
% Maximum inhibition at Max Conc A11 (scFv A11): 76.83%
Molecule: OCC1OC(OC2C(O)C(CO)OC(OC3C(CO)OC(O)C(O)C3O)C2O)C(O)C(O)C1O (stereo not drawn) [gal-α-(1,3)-gal-β-(1,4)-gal]
